# Experimental data reported in US20180237497A1 (CANCER RESEARCH TECHNOLOGY, published 2018).
# Residue numbers refer to the chain shown, from its start. In names and notes the source's numbering stands.
# B1: domain 11^AB5 K1631E (receptor)
# chain: MKSNEHDDCQVTNPSTGHLFDLSSLSGRAGFTAAYAKGWGVYMSICGENENCPPGVGACFGQTRISVGKANKRLRYVDQVLQLVYKDGSPCPSKSGLSYKSVISFVCRPEAGPTNRPMLISLDEQTCTLFFSWHTPLACEQATECSV
# notes: See m5; HI loop mutant
# B2: domain 11^AB5 Q1632A (receptor)
# chain: B1 chain with E124K, Q125A
# notes: See m5; HI loop mutant
# B3: domain 11^AB5 Q1632E (receptor)
# chain: B1 chain with E124K, Q125E
# notes: See m5; HI loop mutant
# B4: domain 11^AB5 K1631A (receptor)
# chain: B1 chain with E124A
# notes: See m5; HI loop mutant
# B5: domain 11^AB5 S1600V (receptor)
# chain: B1 chain with S93V, E124K
# notes: See m5
# B6: domain 11^AB5 S1600N (receptor)
# chain: B1 chain with S93N, E124K
# notes: See m5
# B7: domain 11^AB5 Q1632K (receptor)
# chain: B1 chain with E124K, Q125K
# notes: See m5; HI loop mutant
# B8: domain 11^AB5 P1599V (receptor)
# chain: B1 chain with P92V, E124K
# notes: See m5; the asterisk is not explained
# B9: domain 11^AB5 T1633A (receptor)
# chain: B1 chain with E124K, T126A
# notes: See m5; HI loop mutant
# B10: domain 11^AB5 S1600A (receptor)
# chain: B1 chain with S93A, E124K
# notes: See m5
# B11: domain 11^AB5 G1603A (receptor)
# chain: B1 chain with G96A, E124K
# notes: See m5
# B12: domain 11^AB5 Q1632L (receptor)
# chain: B1 chain with E124K, Q125L
# notes: See m5; HI loop mutant
# B13: domain 11^AB5 S1602A (receptor)
# chain: B1 chain with S95A, E124K
# notes: See m5
# B14: domain 11^AB5 K1601A (receptor)
# chain: B1 chain with K94A, E124K
# notes: See m5
# B15: domain 11^AB5 L1604A (receptor)
# chain: B1 chain with L97A, E124K
# notes: See m5
# B16: domain 11^AB5 P1599G (receptor)
# chain: B1 chain with P92G, E124K
# notes: as for B8
# B17: domain 11^AB5 S1600L (receptor)
# chain: B1 chain with S93L, E124K
# notes: See m5
# B18: domain 11^AB5 K1631R (receptor)
# chain: B1 chain with E124R
# notes: See m5; HI loop mutant
# B19: domain 11^AB5 S1602N (receptor)
# chain: B1 chain with S95N, E124K
# notes: See m5
# B20: domain 11^AB5 K1631W (receptor)
# chain: B1 chain with E124W
# notes: See m5; HI loop mutant
# B21: domain 11^AB5 S1600Y (receptor)
# chain: B1 chain with S93Y, E124K
# notes: See m5
# B22: domain 11^AB5 P1599A (receptor)
# chain: B1 chain with P92A, E124K
# notes: as for B8
# B23: domain 11^AB3 P1597H K1631W (receptor)
# chain: B1 chain with A36S, G38S, W39G, G40V, P90H, E124W
# notes: See m5
# B24: domain 11^AB5 P1597K (receptor)
# chain: B1 chain with P90K, E124K
# notes: See m5
# B25: domain 11^AB5 P1597A (receptor)
# chain: B1 chain with P90A, E124K
# notes: See m5
# B26: domain 11^AB5 P1597L (receptor)
# chain: B1 chain with P90L, E124K
# notes: See m5
# B27: domain 11^AB5 P1597K S1602H (receptor)
# chain: B1 chain with P90K, S95H, E124K
# notes: See m5
# B28: domain 11^AB3 P1597K S1602H (receptor)
# chain: B1 chain with A36S, G38S, W39G, G40V, P90K, S95H, E124K
# notes: See m5
# B29: domain 11^AB3 Q1569R P1597K S1602H (receptor)
# chain: B1 chain with A36S, G38S, W39G, G40V, Q62R, P90K, S95H, E124K
# notes: See m5
# B30: domain 11^AB3 Q1569R P1597K (receptor)
# chain: B1 chain with A36S, G38S, W39G, G40V, Q62R, P90K, E124K
# notes: See m5
# B31: domain 11^AB3 Q1569R P1597K S1602H G1603K (receptor)
# chain: B1 chain with A36S, G38S, W39G, G40V, Q62R, P90K, S95H, G96K, E124K
# notes: See m5
# Target: T1, human IGF2^1-67 (mature insulin-like growth factor 2) (human, UniProt P01344 25-91, biotinylated (site not stated) where immobilised on the chip (Tables 1-4))
# T1 construct: mature; also called mature IGF2; biotinylated IGF2
# T1 sequence (P01344 25-91): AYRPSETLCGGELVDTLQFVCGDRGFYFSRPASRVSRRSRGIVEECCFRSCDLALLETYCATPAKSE
# Experiment: SPR kinetic, biotin-IGF2 on chip, pH 7.4
# Text: (§1) Surface plasmon resonance (SPR) binding analysis of recombinant M6P/IGF2R domain 11 mutants interaction with IGF2. Kon indicates association (on) rate; koff, dissociation (off) rate; RU, response units. Binding to IGF2 assessed with BIAcore T200 using purified biotinylated IGF2 and IGF1 on a streptavidin biosensor chip. Recombinant proteins were expressed either in E. coli and/or P. pastoris. All the mutants in the FG and CD loops are on the domain 11^AB5 background for the AB loop unless otherwise stated. All experiments were carried out at 25° C. in HBS-EP buffer (pH 7.4), were repeated 2-5 times on two independent BIAcore chips. nd=not determined. Data for KD expressed as mean of each experiment, and means of kon and koff are shown.
# (§2) Final kinetic analysis of mutants by SPR was conducted using a Biacore T200 biosensor at 25° C. in either HBS-EP (10 mM HEPES pH 7.4, 150 mM NaCl, 3 mM EDTA, and 0.005% (v/v) surfactant P20) or MES-EP (20 mM MES pH 6.5, 150 mM NaCl, 3 mM EDTA, and 0.005% (v/v) surfactant P20) at a flow-rate of 40 μL min⁻¹. […] For the analysis of the Fc-domain 11^AB5 interaction, approximately 50 RU of a biotinylated IGF2:biotinylated ubiquitin mixture (1:8 proportion) was immobilized on the CM5-streptavidin chip. This interaction was also analysed by immobilizing the Fc-domain 11^AB5 and Fc-domain 11^AB5-RHH (or Fc-domain 11^I1572A as control) by Human Antibody Capture (monoclonal mouse anti-human IgG antibody immobilised on a CM5 chip by amine coupling, GE Healthcare) with and without human IgG1 Fc fragment (Bethyl Laboratories, UK) in the control flow cell. […] T200 BiaEvaluation software (GE Healthcare) was used to fit the resulting curves according to a 1:1 binding model. Steady state affinities were determined using the kinetic data, taking the response average at 5 seconds before injection end and for 5 seconds average.
Kd,koff,kon,Binder
> 100 nM,> 0.1 s⁻¹,–,B1
3.76 nM,0.0167 s⁻¹,4.5e+06 M⁻¹ s⁻¹,B2
39.8 nM,0.0202 s⁻¹,520000 M⁻¹ s⁻¹,B3
> 200 nM,–,–,B4
> 200 nM,> 0.2 s⁻¹,–,B5
24.4 nM,0.091 s⁻¹,3.95e+06 M⁻¹ s⁻¹,B6
11.1 nM,0.0212 s⁻¹,1.96e+06 M⁻¹ s⁻¹,B7
> 100 nM,> 0.1 s⁻¹,–,B8
26.4 nM,0.0196 s⁻¹,800000 M⁻¹ s⁻¹,B9
89.1 nM,0.213 s⁻¹,2.39e+06 M⁻¹ s⁻¹,B10
8.69 nM,0.0183 s⁻¹,2.14e+06 M⁻¹ s⁻¹,B11
5.75 nM,0.0175 s⁻¹,3.18e+06 M⁻¹ s⁻¹,B12
16.5 nM,0.025 s⁻¹,1.57e+06 M⁻¹ s⁻¹,B13
6.8 nM,0.022 s⁻¹,3.26e+06 M⁻¹ s⁻¹,B14
48.3 nM,0.0397 s⁻¹,790000 M⁻¹ s⁻¹,B15
> 200 nM,> 0.2 s⁻¹,–,B16
> 200 nM,> 0.2 s⁻¹,–,B17
12.3 nM,0.0867 s⁻¹,7.18e+06 M⁻¹ s⁻¹,B18
4.75 nM,0.0112 s⁻¹,2.38e+06 M⁻¹ s⁻¹,B19
2.94 nM,0.0034 s⁻¹,1.18e+06 M⁻¹ s⁻¹,B20
> 200 nM,> 0.2 s⁻¹,–,B21
> 70 nM,> 0.1 s⁻¹,–,B22

# Target: T1, human IGF2^1-67 (mature insulin-like …)
# Experiment: SPR kinetic, biotin-IGF2 on chip, pH 7.4
# Remark: another data set of the same source
# Method: as §2, with “average. Thermodynamic data was performed across the temperature range of 10° C. to 30° C., van't Hoff and Erying plots generated and ΔH, −TΔS and ΔG values determined as previously described.” for “average.”
Kd,koff,kon,Binder
17.6 nM,0.348 s⁻¹,1.97e+07 M⁻¹ s⁻¹,B23
1.94 nM,0.012 s⁻¹,9.54e+06 M⁻¹ s⁻¹,B24
9.07 nM,0.0174 s⁻¹,1.9e+06 M⁻¹ s⁻¹,B25
3.86 nM,0.015 s⁻¹,4.18e+06 M⁻¹ s⁻¹,B26
4.62 nM,0.0096 s⁻¹,2.09e+06 M⁻¹ s⁻¹,B27
3.73 nM,0.0102 s⁻¹,2.74e+06 M⁻¹ s⁻¹,B28
0.79 nM,0.016 s⁻¹,2.01e+07 M⁻¹ s⁻¹,B29
1.34 nM,0.0241 s⁻¹,2e+07 M⁻¹ s⁻¹,B30
0.78 nM,0.0171 s⁻¹,2.08e+07 M⁻¹ s⁻¹,B31

# Target: T1, human IGF2^1-67 (mature insulin-like …)
# Experiment: SPR steady state, biotin-IGF2 on chip, pH 7.4
# Text: as §1, §2
row,Kd,Binder
1,> 100 nM,B1
2,4.84 nM,B2
3,52.4 nM,B3
4,> 200 nM,B4
5,> 200 nM,B5
6,29.7 nM,B6
7,12.8 nM,B7
8,> 100 nM,B8
9,53.5 nM,B9
10,84.7 nM,B10
11,12.1 nM,B11
12,9.34 nM,B12
13,19.9 nM,B13
14,8.51 nM,B14
15,60 nM,B15
16,> 200 nM,B16
17,> 200 nM,B17
18,13.5 nM,B18
19,7.93 nM,B19
20,12.2 nM,B20
21,> 200 nM,B21
22,> 70 nM,B22

# Target: T1, human IGF2^1-67 (mature insulin-like …)
# Experiment: SPR steady state, biotin-IGF2 on chip, pH 7.4
# Remark: another data set of the same source
# Method: as §2, with “average. Thermodynamic data was performed across the temperature range of 10° C. to 30° C., van't Hoff and Erying plots generated and ΔH, −TΔS and ΔG values determined as previously described.” for “average.”
row,Kd,Binder
1,18.7 nM,B23
2,2.21 nM,B24
3,12.4 nM,B25
4,4.85 nM,B26
5,7.85 nM,B27
6,5.33 nM,B28
7,1.39 nM,B29
8,2.27 nM,B30
9,1.62 nM,B31
